Reference: patent publication US12228572B2, “Enhanced expression of polo-like kinase 3 (PLK3) in human immunodeficiency virus (HIV)-infected cells” (priority 2021, dated 2025)
Where “and” joins values, the source holds several entries; their conditions need not be identical. Equal entries are not always repeated.

Assays:
[1] = test system: HIV-1BaL; assay: Infectivity of supernatant from transfected 293T cells treated with pBaL, on TZM-bl cells; format: cell-based; conditions: 48 hours after transfection
[2] = test system: HIV-1; conditions: overexpression of the PLK3 protein
[3] = test system: HIV-189.6; assay: Infectivity of supernatant from transfected 293T cells treated with p89.6, on TZM-bl cells; format: cell-based; conditions: 48 hours after transfection
[4] = test system: HIV-1AD8; assay: Infectivity of supernatant from transfected 293T cells treated with pAD8, on TZM-bl cells; format: cell-based; conditions: 48 hours after transfection
[5] = test system: HIV-1; conditions: overexpression of the PLK3 protein; remark: listed apart in the source
Excerpt: Specific test steps are as follows. All RNAs were extracted for qPCR to measure the Gag transcription level of HIV-1 (FIG. 4). Cells were collected for a flow cytometry test, and the expression level of an HIV-1 p24 protein was detected by using specific antibodies (FIG. 5).

[6] = test system: HIV-2ROD; assay: Infectivity of supernatant from transfected 293T cells treated with pHIV-2ROD, on TZM-bl cells; format: cell-based; conditions: 48 hours after transfection
[7] = test system: HIV-1
[8] = test system: hepatitis B virus (HBV); assay: HBs ELISA of HBV virus particles in supernatant of 293T cells treated with HBV replicator; format: cell-based; conditions: overexpression in 293T cells, HBV driven by CMV promoter, 48 hours
[9] = test system: SIVagm; assay: Infectivity of supernatant from transfected 293T cells treated with pSIVagm, on TZM-bl cells; format: cell-based; conditions: 48 hours after transfection
[10] = test system: HIV-1; conditions: overexpression of the PLK3 protein; remark: listed apart in the source
[11] = test system: HIV-1; remark: listed apart in the source

B1: PLK3 protein: human PLK3 protein overexpressed from a 3× FLAG-labeled PLK3 protein expression vector (protein, UniProt Q9H4B4 1-646, looked up)
chain: MEPAAGFLSPRPFQRAAAAPAPPAGPGPPPSALRGPELEMLAGLPTSDPGRLITDPRSGRTYLKGRLLGKGGFARCYEATDTETGSAYAVKVIPQSRVAKPHQREKILNEIELHRDLQHRHIVRFSHHFEDADNIYIFLELCSRKSLAHIWKARHTLLEPEVRYYLRQILSGLKYLHQRGILHRDLKLGNFFITENMELKVGDFGLAARLEPPEQRKKTICGTPNYVAPEVLLRQGHGPEADVWSLGCVMYTLLCGSPPFETADLKETYRCIKQVHYTLPASLSLPARQLLAAILRASPRDRPSIDQILRHDFFTKGYTPDRLPISSCVTVPDLTPPNPARSLFAKVTKSLFGRKKKSKNHAQERDEVSGLVSGLMRTSVGHQDARPEAPAASGPAPVSLVETAPEDSSPRGTLASSGDGFEEGLTVATVVESALCALRNCIAFMPPAEQNPAPLAQPEPLVWVSKWVDYSNKFGFGYQLSSRRVAVLFNDGTHMALSANRKTVHYNPTSTKHFSFSVGAVPRALQPQLGILRYFASYMEQHLMKGGDLPSVEEVEVPAPPLLLQWVKTDQALLMLFSDGTVQVNFYGDHTKLILSGWEPLLVTFVARNRSACTYLASHLRQLGCSPDLRQRLRYALRLLRDRSPA
modifications: full-length 3xFLAG tag
notes: human PLK3 protein overexpressed from a 3× FLAG-labeled PLK3 protein expression vector
- ability to limit infection with HIV-1BaL [1]: has an ability to limit infection
- content of core antigen p24 of virus particles in cultured supernatant [2]: greatly decreased
- ability to limit infection with HIV-189.6 [3]: has an ability to limit infection
- ability to limit infection with HIV-1AD8 [4]: has an ability to limit infection
- transcription level of virus Gag in cells [5]: not affected
- virus Gag protein level [5]: obviously reduced
- ability to limit infection with HIV-2ROD [6]: has an ability to limit infection
- HIV infectivity reduced to fraction of original level ([7]; 293T cells with vs without PLK3 protein expression, maximum reduction, 48 hours after transfection): about 1/150
- HIV-1 infectivity as fraction of that of the negative control group ([7]; different expression amounts, 293T cells, pNL4.3, 48 hours): 1/11 and 1/115
- replication and release of the HBV [8]: not affected
- ability to limit infection with SIVagm [9]: has an ability to limit infection
- content of genomic RNA of the virus particles in cultured supernatant [10]: greatly decreased
- ability to block HIV-1 infection [11]: extremely strong ability to block HIV-1 infection
